Here are results for one substance from US20240059752A1 (ZHEJIANG DOER BIOLOGICS CO., LTD., priority 2020, published 2024).

Where no end group is shown, it is not given here. [ ]: non-standard residue; d: D form. Aib = CC(C)(N)C(=O)O

This assay has as its target T1, hGIPR (Homo sapiens, UniProt P48546).
T1 construct: expressed in transfected cells
T1 sequence (P48546 22-466): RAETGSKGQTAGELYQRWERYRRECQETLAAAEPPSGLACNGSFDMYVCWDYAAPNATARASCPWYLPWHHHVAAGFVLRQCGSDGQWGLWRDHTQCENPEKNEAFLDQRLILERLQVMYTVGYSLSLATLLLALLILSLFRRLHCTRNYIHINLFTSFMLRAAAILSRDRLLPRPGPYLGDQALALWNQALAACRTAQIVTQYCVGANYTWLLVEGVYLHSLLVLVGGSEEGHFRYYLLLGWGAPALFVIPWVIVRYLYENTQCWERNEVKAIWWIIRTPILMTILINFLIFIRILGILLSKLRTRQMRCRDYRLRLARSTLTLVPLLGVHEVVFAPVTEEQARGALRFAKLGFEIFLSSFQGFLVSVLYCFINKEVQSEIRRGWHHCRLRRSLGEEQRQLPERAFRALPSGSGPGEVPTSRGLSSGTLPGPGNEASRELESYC
Description: GIPR agonist activity, luciferase reporter gene assay in CHO-K1 cells. It counts as cell-based. The conditions noted are these: % that of natural GIP peptide.

Consider “P29: GCG analogue, SEQ ID No. 5, unconjugated backbone of P29F (H[Aib]QGTFTSDYSK[Aib]KDSQAAQDFVQWLLAGGPSSGAPPPS-NH2)”, for which the “GIPR agonist activity relative to natural GIP peptide” value is listed as “about 2%”.
